Measured values taken from patent US20250302939A1, “VACCINE FOR HUMAN T-LY[…]-1” (The United States of America, as represented by the …, priority 2022, published 2025).

Test system: MHC class-I
Experiment: Surface expression of MHC class I in transduced Jurkat T-cells (FACS)
Assay type: cell-based, human
Conditions: HIV nef as positive control
Protocol: FIGS. 5A-5E. (FIG. 5A) Amino acids alignment between Rex-orfI protein (p16) (SEQ ID NO: 10) and p12/p8 (SEQ ID NO: 11). Amino acids changes are underlined. Jurkat T-cells (FIG. 5B) or THP-1 cells (FIG. 5C) were transduced with lentiviral GFP vector expressing p12/p8 HA tag, or p16-HA tag or only GFP, as a control. Forty-eight hours post-transfection proteins were extracted and immunoblot with anti HA antibody was performed. Jurkat T-cells were transduced with GFP-lentiviruses expressing p16, Nef, or only GFP as a control. Cells were stained with HLA-ABC antibody (PE/Cy5 anti-human HLA-A,B,C clone w6/32 BioLegend) and analyzed by FACS. (FIG. 5D) Protein expression was verified by Immunoblot using an anti HA antibody and B-actin as control (cell signaling and appropriate secondary antibodies purchased from Santa Cruz Biotechnology) (FIG. 5E).
The cDNA synthesized from the rex-orf-I mRNA (FIG. 5A) encodes upon transfection a single protein band (p16) in Jurkat T-cells (FIG. 5B and FIG. 5C). In the human myeloid cell line THP-1 further processing of p16 results in two lower protein bands (FIGS. 5D and 5E).

B1: p16: HTLV-1C protein encoded by the rex-orf-I mRNA (SEQ ID NO: 10) (protein, listed as Homo sapiens)
chain: MPKTRRGPRRSQRKRPPTPWQPPPFSLQGLCLALQLSSITINPQLRHSFSSSTTLPCLLLPSSLFCLSPLALAALLFLQFSPGAVGGLLLRPPPAPSLLLSLPFQKLSNLFLLLFFPLSFSLSLLLGPSPPITMRFPARWRFLFRRAPSQPA
effect on surface expression of MHC class I: does not affect surface expression of MHC-class I
